In PMC7181604, “Arabidopsis FHY3 and FAR1 integrate light and strigolactone signaling to regulate branching”:

Columns and labels:
His-FHY3-I = biological target: T1, His-FHY3-I (Arabidopsis thaliana, UniProt Q9LIE5 1-251); experiment: EMSA; FHY3-I alone; Beyotime EMSA kit, manufacturer's protocol (binding buffer not stated); proteins stored in 5 mM Tris-Cl pH 8.0, 50 mM KCl; conditions: protein: recombinant; tags: 6xHis (pET28a); label: biotin; blunt
T1 sequence: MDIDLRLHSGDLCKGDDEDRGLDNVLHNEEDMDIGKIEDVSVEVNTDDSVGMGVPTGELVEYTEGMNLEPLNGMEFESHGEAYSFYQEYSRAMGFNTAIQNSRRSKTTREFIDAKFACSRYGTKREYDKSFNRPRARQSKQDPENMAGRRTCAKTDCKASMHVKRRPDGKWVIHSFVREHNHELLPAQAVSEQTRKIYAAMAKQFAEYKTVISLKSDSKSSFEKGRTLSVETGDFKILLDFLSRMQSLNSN

GST-SPL9SBP = biological target: T2, GST-SPL9SBP (Arabidopsis thaliana, UniProt Q700W2 71-148); experiment: EMSA; Beyotime EMSA kit, manufacturer's protocol (binding buffer not stated); proteins stored in 5 mM Tris-Cl pH 8.0, 50 mM KCl; conditions: protein: recombinant; tags: GST (N-terminal, pGEX-4T-1); label: biotin; blunt
T2 sequence: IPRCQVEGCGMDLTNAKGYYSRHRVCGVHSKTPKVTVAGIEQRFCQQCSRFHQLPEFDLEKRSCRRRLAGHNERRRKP

GST-SPL15SBP = biological target: T3, GST-SPL15SBP (Arabidopsis thaliana, UniProt Q9M2Q6 56-133); experiment: as above; conditions: protein: recombinant; tags: GST (N-terminal, pGEX-4T-1); label: biotin; blunt
T3 sequence: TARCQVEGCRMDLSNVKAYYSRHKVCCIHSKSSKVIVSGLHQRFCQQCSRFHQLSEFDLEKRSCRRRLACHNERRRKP

B1: BRC1 promoter EMSA probe (PB01/PB02) (dsDNA)
DNA 1: GAAGAAGCCAGCGAGTCCAACCATTATAGTCATGTGGTCCTCCTGATAATTGCAGGCCTA
DNA 2: TAGGCCTGCAATTATCAGGAGGACCACATGACTATAATGGTTGGACTCGCTGGCTTCTTC
B1: no binding (His-FHY3-I); binds (GST-SPL9SBP); binds (GST-SPL15SBP).
